Experimental findings from the DeepSol protein solubility set are described below.

The data set is described as follows: soluble on expression in E. coli; label from the status in PepcDB or PDB records.
With “MSLDAENRAFYKIFTLKNNNLCKNSTLLEKIFKNNVEEFDFSLVKQNLEHEKNCVITSTMNQTIFFENMNSKEMGNKAYSFFNQTVLNNKGNTSLEEQISDIFDRCVYMNAEKSSSYIKLLEQDYNQVDMFVSLIFIGPYRHNLILITPVTLHLTLIPKNVKNNSFKNLFSGDMHFNMVTMTHLTEGHHHHHH”, the “soluble on expression in E. coli” value was “soluble”.

For “MGSDKIHHHHHHMQPELSEFLRQHRITEVEAIIPDMAGIARGKIIPRNKFESGESMRLPQAVMVQTVTGDYPEDGTLTGVTDPDMVCVPDPSTICLVPWAVDPTAQVIHDCVHFDGSPVEISPRYVLRRVLDLYKAKGWQPVVAPELEFYLVDMNADPDLPLRPPIGRTGRAETGRQSYSIEAVNEFDPLFEDIYEYCEMQGLDIETLIHEVGAAQMEINFVHGDALSLADQVFLFKRTVREAALRHNMYATFMAKPMEGEPGSAMHIHQSLADVHTGRNLFAEEGGVVSPMFHSYLAGLQKYTPALMPIFAPYINSYRRLSRFMAAPINVQWGYDNRTVGFRIPQSTPVARRIENRIPGVDCNPYLAFAATLAAGYLGLTQQLAPTEPIASDGYDLPYQLPRNLEEGISLMAACTPLAGILGDKFVKAYLALKETEYEAFFRVISSWERRHLLLHV”, the “soluble on expression in E. coli” value is listed as “not soluble”.

Take “MGHHHHHHGGHMSLEEVLEAAEKIRSMEVRGAARIARFAAETLMKFAEKASDEKFDEEMRFAAETLLNTRPTAVSLYNAINYVMRYSGESVEEKRQSVIRRAREFINWVETAQRKIGEIGEKRIKDGYTVMTHCNSSAALSVIKKAHENGKRVEVIATESRPRWQGHLTVKQLREAGIEVTLIVDSAVRYFINEVDCVVVGADTITANGALINKIGTSQIALAAKEARVPFMVAAETYKFSPKTLFGELVVIEERDAREVAPEEILKLGVKVRNPAFDVTPRDYIDVIITEIGAIPPEMAYIVITERLGYAGIEEEEITLNSRHFDEGGS”: the “soluble on expression in E. coli” value is reported as “soluble”.

As to “VNIKTNPFKAVSFVESAIKKALDNAGYLIAEIKYDGVRGNICVDNTANSYWLSRVSKTIPALEHLNGFDVRWKRLLNDDRCFYKDGFMLDGELMVKGVDFNTGSGLLRTKWTDTKNQEFHEELFVEPIRKKDKVPFKLHTGHLHIKLYAILPLHIVESGEDCDVMTLLMQEHVKNMLPLLQEYFPEIEWQAAESYEVYDMVELQQLYEQKRAEGHEGLIVKDPMCIYKRGKKSGWWKMKPENEADGIIQGLVWGTKGLANEGKVIGFEVLLESGRLVNATNISRALMDEFTETVKEATLSQWGFFSPYGIGDNDACTINPYDGWACQISYMEETPDGSLRHPSFVMFR”, the “soluble on expression in E. coli” value was “soluble”.

For the sequence “MNQLNWKDVTPSFEQYEDILKSASSLPKKKFVELQPRLLATVERFKKIKGLTRVLVINCADNTVYRKFICDVVTDGLEPTIMTESLDAKLLFDRYSVDLKGDVVVEAGLLSKAN”, the “soluble on expression in E. coli” value was “not soluble”.

Turning to “MGSDKIHHHHHHMFQPPLIAFLTDFGLEDAFVGVMKGVIATICREAQVIDLTHAISAQNVRQAAFHLDRSISYFPAETIFVCVVDPGVGTARRAIGVEAGPYRFIAPDNGLLTPVFERWADAKCHELTNPAYQLANPSATFHGRDLFSPAAAHLATGVPLNAFGSAIDVANCTRIELWQNKPCDNGKVWTGEVIATDHFGNLITSFEASMLSDGEDWTVKAGNAEPLPILRTYGEVEQGKPLAYIGSSGMIEIAIRNGSASAELRVGGGDEVELRKG”, the “soluble on expression in E. coli” value is recorded as “not soluble”.

On to “MGSDKIHHHHHHMSLPAMDAGIYLEETAPRALIEHNNILDNSVGVYLHGSADAMVRENKIVGDATLRVNERGNGVTVWNAPGAQVVGNDISKGRDGIFSNTSTHNTYKNNRFSDLRFAVHYMYTNDSEISGNISVGNNMGYVLMFSERLKVFDNIAVGSRDQGIMLNYVNYSDIHDNIINKAGKCVFAYNANYDKLSANHFENCQIGIHFTAAIEGTSLHDNSFINNESQVKYVSTRFLDWSEGGHGNYWSDNSAFDLNGDGFGDSAYRPNGIIDQIIWRAPVSRLLMNSPAISIVKWAQAQFPAVLPGGVVDSKPLMKPYAPKIQTRYQAMKDGLLKKVETRQLEWGRAENGSLN”, for which the “soluble on expression in E. coli” value is reported as “not soluble”.

Regarding “MGSDKIHHHHHHMIMNNHRMLPDQDAWEPWSPAELSRRLSGISRPWCIVGGWALDLWHGSTMREHDDLEFTVLREDLEIFRRELSEMEFYTVNDGVLERLPPDRQPASEIFQIWCFDRTAKCWRVDMMIEPGTDDTWAYKRNPEITRPRTDMVALTADGIPYLNPSAVLLFKAKHRRPKDEQDFVNAHPKLLLSERRWLRNCLELLHPGHEWAQAL”, the “soluble on expression in E. coli” value is “not soluble”.

Regarding “MVHIRLSFITFSLILFLVVDMVKIPKSHPRYWSLLYREKIIEGMEKGITAKAGLIAHGRGEAFDYLIGEKTIPPAETAMRAAIAKLLLAKHPVISVNGNVAALVPKETVELAKVLNAKLEINLFYRTEERVKKIAEVLYENGADEVLGINPTKRIPGLESERGKVDENGIWKADVILVPLEDGDRTEALCRMGKFVITVDLNPLSRSARMADITIVDNIVRAYPRMIELAKEMKSLPKEDLEKIVATYDNSKVLSEVLIHIRDRLTKLAEGGIWKKEKLEHHHHHH”, the “soluble on expression in E. coli” value was “not soluble”.

As for “SNAMKVINVDVAIIGTGTAGMGAYRAAKKHTDKVVLIEGGAYGTTCARVGCMPSKLLIAAADASYHASQTDLFGIQVDRISVNGKAVMKRIQTERDRFVGFVVESVESFDEQDKIRGFAKFLDEHTLQVDDHSQVIAKRIVIATGSRPNYPEFLAAAGSRLLTNDNLFELNDLPKSVAVFGPGVIGLELGQALSRLGVIVKVFGRSGSVANLQDEEMKRYAEKTFNEEFYFDAKARVISTIEKEDAVEVIYFDKSGQKTTESFQYVLAATGRKANVDKLGLENTSIELDKKNSPLFDELTLQTSVDHIFVAGDANNTLTLLHEAADDGKVAGTNAGAYPVIAQGQRRAPLSVVFTEPQVASVGLSLRQIEDLYADQDAANYVVGQVSFEGQGRSRVMGKNKGLLNVYADRTSGEFLGAEMFGPAAEHIGHLLAWARQQQMTVQAMLTMPFYHPVIEEGLRTALRDAQQKLAIEKHDMNEFIMTHDNAMKLVI”, the “soluble on expression in E. coli” value was “soluble”.

For “MDFETNEDINGVRFTWNVFPSTRSDANSNVVPVGCLYTPLKEYDELNVAPYNPVVCSGPHCKSILNPYCVIDPRNSSWSCPICNSRNHLPPQYTNLSQENMPLELQSTTIEYITNKPVTVPPIFFFVVDLTSETENLDSLKESIITSLSLLPPNALIGLITYGNVVQLHDLSSETIDRCNVFRGDREYQLEALTEMLTGQKPTGPGGAASHLPNAMNKVTPFSLNRFFLPLEQVEFKLNQLLENLSPDQWSVPAGHRPLRATGSALNIASLLLQGCYKNIPARIILFASGPGTVAPGLIVNSELKDPLRSHHDIDSDHAQHYKKACKFYNQIAQRVAANGHTVDIFAGCYDQIGMSEMKQLTDSTGGVLLLTDAFSTAIFKQSYLRLFAKDEEGYLKMAFNGNMAVKTSKDLKVQGLIGHASAVKKTDANNISESEIGIGATSTWKMASLSPYHSYAIFFEIANTAANSNPMMSAPGSADRPHLAYTQFITTYQHSSGTNRIRVTTVANQLLPFGTPAIAASFDQEAAAVLMARIAVHKAETDDGADVIRWLDRTLIKLCQKYADYNKDDPQSFRLAPNFSLYPQFTYYLRRSQFLSVFNNSPDETAFYRHIFTREDTTNSLIMIQPTLTSFSMEDDPQPVLLDSISVKPNTILLLDTFFFILIYHGEQIAQWRKAGYQDDPQYADFKALLEEPKLEAAELLVDRFPLPRFIDTEAGGSQARFLLSKLNPSDNYQDMARGGSTIVLTDDVSLQNFMTHLQQVAVSGQA”, the “soluble on expression in E. coli” value is given as “soluble”.

Turning to “MSNWKPNIPYNDLPPLPPKQDIESKTILKRCIAARASLARLKQAAELIPNQAMLINTLPVMEARASSEIENIVTTTDKLFQSLQMDTERQDPATKEALQYRTALFAGYESLTSRPLCTQTAIMVCNAIKHPYEMAIRKTGGTALKGGNSGNVVYTPPEGEETIRGKLANWERFIHESGDLDPLIIMAAAHYQFEAIHPFTDGNGRTGRILNSLLLIEKGLLDLPILYLSRYIIENRADYYRLLLGVTERQDWESWIIYILDGVADTADWTVSKIDAIRRLFEQTRQHIRTHAQGIYTHELVNLLFEQPYTRIANLEAAGIAKRQTASKYLKELSDIGVLQEIVIGRDKLFIHPRLMELLRGEGNSFTSFQSLVKA”, the “soluble on expression in E. coli” value is recorded as “not soluble”.

Consider “MDLSVTHMDDLKTVMEDWKNELLVYKFALDALDTKFSIISQEYNLIHGHNPIEHTKSRVKSFESIVNKLMRKGCEITTKEMKEHIHDIAGVRIICSFISDIYNVVNVLKQHEDLRIVKVKDYIQTPKPNGYRSLHLIIEMPVNLTNRVEYVKAEIQIRTIAMDFWASLEHKIYYKLNNDVPKQLTDELKEAAEIAHYLDEKMLGIKKEVD”, for which the “soluble on expression in E. coli” value is “not soluble”.

With “MRVFALQLESFKENLMQSLFNSIPKKSVIVLPEYVINPFFHHNMGLDVNEISDQSARAVEFLSQKCEELDLIVSAPVLLEEHSKIYKKIALISKESVKYYTQQRLIPYPHWDEESFFDNEKSAFKELLVFERDGLKFAPLFGFEAHFDEIWVQAKNQGVDVVLLSSVATFESNERWRLLCQMRAFCASCVVVRANRIGAYRQIIVEEDQKNEFLWKFYGDSFVALPNGAIEDSLEGKMGALNAQIDKNDIDEWAKLWHFRTIKEGLEHHHHHH”, the “soluble on expression in E. coli” value is on record as “not soluble”.

Turning to “MMDLHTHTVYSDGIGLIRDNVAWAEKRGLKIVGISDHIHFFTPSRFSAYINEINVIKEESEIVVLAGIEANILENGPDITDEFRKKLDYAIASVHEWFGRNGTHEYINYVKKAIMDDNVDIIGHFGNSFPWIGYPTREEIDEILDLAEAYGKAFEISARYKVPDLEFIRECVKRGIKLSLATDAHRPEDVGKVSWSLKMLEKAGGTKEDLIFSEYL”, the “soluble on expression in E. coli” value is listed as “soluble”.

For the sequence “MGSDKIHHHHHHMSLKTSDVKFKDRIQTQIHDPIMRKAVANAQERIGANRQKMVDELGHWEAWRDHAAQIREHVLNNLDAYLYQLSEKVTANGGQVYFAKTKEDATRYILQVAQANHAKKVVKAKSMVTEEIGMNHVLQQAGIEVIETDLGEYILQLDQDPPSHVVVPAIHKDRYQIRKVLHEKLGYDGPETPEAMTLFIRKKIREDFLSAEVGVTGCNFAVAETGSVCLVTNEGNARMCTTLPKTHIAVMGMERIAPTFEEVDVLITMLARSAVGARLTGYNTWLTGPREAGHVDGPQEFHLVIVDNGRSQILGSAFRDILRCIRCGACINTCPAYRHIGGHGYGSIYPGPIGAVISPLLGGYQDFKELPYACSLCTACDTVCPVHIPLSSLILKHRRVMAESGITPKAEQRFTKLFSYVNSHPMLWKVGMIAGAHAAGWFIKNGKTRIEMGAIGEWTEARDLPDADGESFRSWFKKHQARGKK”, the “soluble on expression in E. coli” value is reported as “not soluble”.

As for “MAIIEEIFEDEEDQITKVDSLKKEGNNFFANGEFEKANEKYQEAIASCPPTSTEVQSILLSNSAAALIKLRKWESAVEAASKSIEIGATNEKALERRAFAYSNMSEKYENSIEDYKQLQESLPKRRVELDRKIAEINEKINNRNEAMKADVMEKLKGFGNFCLSPFGLSTDSFEMVPNGNGGFSVQMKGATNKQEGASQEKKEEENA”, the “soluble on expression in E. coli” value is listed as “soluble”.

“GMNKEVDLSVSCLGKVKELKYDVIILPWGATEPHNLHLPYLTDCILPHDIAVEAAELALSRSGVRCMVMPPVPFGAHNPGQRELPFCIHTRYATQQAILEDIVSSLHVQGFRKLLILSGHGGNNFKGMIRDLAFEYPDFLIAAANWFEVVSPKGYFEAEIDDHAGESETSVMMHYHPELVNLAEAGDGESKPFAIASLNEKVAWVPRHWDKATVDSGVGNPKKATAEKGERYVKPIVEKLAGLFEEMAQHDLYE”: the “soluble on expression in E. coli” value is reported as “soluble”.

Turning to “MAHHHHHHMTTAGQSDAFTRVSLHSVTALGKCPAPFSDPIAVKVVLEVFGCPPKHSIDVKFTWKPIWDFPVDQVLDEFEVGPLATVGKHELVLHSDPPDVAKIPDPTGPTALTIAFTYRGKQFLHIGYNAVVLCEGEMPDVFEDAAMLSRQLTQCFKKETTIAWDEDHEDVEEKTVINGKDNDISDVKEKDHNGHAAYDDEAKVPEGVSPTKKKARCEGSLSQ”, the “soluble on expression in E. coli” value is reported as “soluble”.
